B1: Rho-related BTB domain-containing protein 2 (Homo sapiens), Q9BYZ6-2 (parent)
chain: MQAWRKGPDGPQKTSSDSMSRLMDSDMDYERPNVETIKCVVVGDNAVGKTRLICARACNATLTQYQLLATHVPTVWAIDQYRVCQEVLERSRDVVDDVSVSLRLWDTFGDHHKDRRFAYGRSDVVVLCFSIANPNSLHHVKTMWYPEIKHFCPRAPVILVGCQLDLRYADLEAVNRARRPLARPIKPNEILPPEKGREVAKELGIPYYETSVVAQFGIKDVFDNAIRAALISRRHLQFWKSHLRNVQRPLLQAPFLPPKPPPPIIVVPDPPSSSEECPAHLLEDPLCADVILVLQERVRIFAHKIYLSTSSSKFYDLFLMDLSEGELGGPSEPGGTHPEDHQGHSDQHHHHHHHHHGRDFLLRAASFDVCESVDEAGGSGPAGLRASTSDGILRGNGTGYLPGRGRVLSSWSRAFVSIQEEMAEDPLTYKSRLMVVVKMDSSIQPGPFRAVLKYLYTGELDENERDLMHIAHIAELLEVFDLRMMVANILNNEAFMNQEITKAFHVRRTNRVKECLAKGTFSDVTFILDDGTISAHKPLLISSCDWMAAMFGGPFVESSTREVVFPYTSKSCMRAVLEYLYTGMFTSSPDLDDMKLIILANRLCLPHLVALTEQYTVTGLMEATQMMVDIDGDVLVFLELAQFHCAYQLADWCLHHICTNYNNVCRKFPRDMKAMSPENQEYFEKHRWPPVWYLKEEDHYQRARKEREKEDYLHLKRQPKRRWLFWNSPSSPSSSAASSSSPSSSSAVV

Variants of: B1
Conditions: with cul3_human CUL3, Q13618

| effect of a mutation on the interaction | Variant |
| --- | --- |
| with no effect | A474G |
| with no effect | R483H |
| with no effect | R511Q |

— IntAct's records for PubMed 29276004
